Data taken from the supplement of paper PMC12042874.
± gives the uncertainty stated by the source.

Test: amyloid nucleation score (Sup35N fusion, yeast selection) (log enrichment); library NNK2; higher = more nucleation; inactive = no reads after selection
How it was run: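 For the nucleation score, DiMSum gave the log enrichment of output over input reads, centred on the mode score of non-aggregating sequences. Psi-negative yeast expressing Sup35N fused to peptides of 20 random codons were induced with 100 μM copper sulfate for 24 hours and grown 7 days at 30°C on medium lacking adenine and uracil. Input and output plasmid inserts were Illumina-sequenced, and sequences with under 100 input reads were excluded.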

Substance | amyloid nucleation score
FTMGVRRLCYSWLRARFVKC | -0.368 ± 1
YFDSDRS | -0.502 ± 0.76
QVKMSSYFVLFFAGPPHVSI | -1.13 ± 0.76
FWVRNVDTLWLSPRYVTWSG | -0.323 ± 0.33
VFVFFGDKW | inactive
LFMLGMSAQLVFAFSLLGGI | 2.62 ± 0.078
GFPRMTIHVKFHGQFSCFII | 0.615 ± 0.5
MWKQWSSRTPRSVVYRGLMV | 0.755 ± 0.21
YGLIFNLASFMLRGPRTSFS | -2.15 ± 0.64
NNYATCNVHCMFMMI | 10.18 ± 0.05
IIEIEGVCAFDWLRIFLILI | -1.27 ± 0.47
RYFYLLWLIVTWIYSRVVIH | inactive
AGLLYVSRLNWSVSQRNGVG | 0.131 ± 1
VILMDMYHAGNSAMCLACGN | -0.119 ± 0.49
QFTCYTVYNGYWA | 3.28 ± 0.15
QSLHTSANSLLNWNFMSLLT | 0.871 ± 0.29
FICPMYESSRIVV | 0.335 ± 0.64
GSQVCILLAKGLWMVVFRIE | -0.795 ± 0.55
CRMNDNSDWVRYAGHKAMAS | 1.2 ± 0.27
SLWYFCRPIGGI | -0.391 ± 0.29
VFAGFACFHIIN | 5.843 ± 0.044
MIYERASSVRISFGMLRFRS | -1.48 ± 1.1

Substance | amyloid nucleation score
HLMLFDMTASLLHSHNVSRP | 5.63 ± 0.058
LTCRTFYNNCVNEWSLHLSL | 4.07 ± 0.072
TVFVWKPRVGKN | 4.716 ± 0.044
ILVSTIEGCLDYNLCFLAGL | 1.67 ± 0.12
GVSVSVYHGWLVLDRMFHNS | 4.25 ± 0.12
MVSCRN | 0.237 ± 1
IFDCCY | -1.82 ± 1.1
ASFFDTVNCSWFSGIFVMGF | 1.59 ± 0.21
LGLLFAINTVLSSQLR | 7.703 ± 0.076
QCAVDSPYDIRKLRR | -0.086 ± 0.39
AKRDMAKKYLSGYHGVLWYV | 0.077 ± 0.63
VLFNKSLLRWSNWLV | 0.166 ± 0.26
WKSCWLGIWSEGIYILGEET | -0.284 ± 1.1
SYCILVLNL | 6.445 ± 0.045
RHHYHSYGSTLVKVRAGQRC | 4.88 ± 0.077
YLRTCI | -0.084 ± 0.49
MRSFCFSVQNIQVTYHVGLA | 3.94 ± 0.1
FVWMCQLS | 6.297 ± 0.048
GKCYFA | -1.87 ± 0.62
GLICRV | 0.518 ± 0.46
RMSVYNF | -0.177 ± 0.79
LNPIFVWFHSC | 7.23 ± 0.077

Substance | amyloid nucleation score
ALMTVASRKTLIPVGAKQMN | inactive
CNSQVVWFFRI | 4.69 ± 0.062
IIACLTVNYCTGRCATLMFP | 6.365 ± 0.036
PCLMVIRRWMITVFYQKLSG | 0.181 ± 0.2
YSFYAKSW | inactive
YMSVSSKGQRVCFTT | -0.488 ± 0.63
LRTIHYPC | inactive
NLYTA | 0.49 ± 0.29
SSMDFVHCSWAVWHLGSFLC | -1.01 ± 0.78
LFADGFGSRINDCNTVSMF | 0.881 ± 0.47
VRSKVFALVGAFSMIKFRGC | inactive
AMLLANALIWNRICGDRRLA | 0.823 ± 0.4
YIVDGVGCNCHTGSIVEMSL | -0.618 ± 0.32
ILISLESSPISGMKCVLQRF | 2.85 ± 0.12
ASLFFM | 0.707 ± 0.34
SRMFVFNVGVIEFWKLGGYN | -0.716 ± 0.64
GSGFLFFSVF | 0.353 ± 0.25
IRWMTHWKV | 0.834 ± 0.43
TPPWQGSDWCGNHCNWQGPM | 0.247 ± 0.8
SVFLSNLFSYRSADNYGMAR | inactive
NFNCYFS | 4.888 ± 0.037
YSTEPSRHGIWNG | -0.735 ± 0.56

Substance | amyloid nucleation score
TSRRHYIVSVNLMK | inactive
TVSIDLASIWALA | inactive
VYISSSFDFWMFVNFIDDTL | -0.511 ± 0.43
ASCNKGPEKSGQLFLLSAFL | -0.641 ± 0.49
VLNSPVFFHSYRSMVSLM | -0.117 ± 0.3
SIWLFYHILVFVLMPFAVAF | inactive
TFFYYYCMCSRTL | 7.83 ± 0.061
WALSHYVCNTYYSNHSVSNT | 5.57 ± 0.052
RFVDEPWNTRDTDFLYV | -0.368 ± 1.1
RRVSAIYYRSLCCLAHYFRL | 0.219 ± 1
HSALWRLWEPAQP | 0.552 ± 0.64
MNQTCIRVDRLELYRYM | inactive
NTMLAFAKKSRMHFSLLLLV | -0.022 ± 0.37
SREVRNANPSSGDDGSIRVE | -0.02 ± 1.1
GSCRDLDLLLERHWRVVSNL | 0.903 ± 0.57
GNTHHRDGILESQPFFVTEA | 0.465 ± 0.29
CIFCYANVFAYFTTKGLFVQ | -0.885 ± 0.38
RMIYGSRRFDVDIFYFGIRN | 4.24 ± 0.074
YVGGTVGV | -0.807 ± 0.64
YLLFEWHYRHTYRCLVRVGA | -0.166 ± 0.76
MLSQASKT | -0.84 ± 1.1
